The results in this text go back to paper PMC5358723 (Genes & Development, 2017).

B1: ZMYM3 CT (amino acids 1000-1370), bacterially expressed (domain or fragment, human, UniProt Q14202 1000-1370, looked up)
chain: FPKNPLDINPSVDFLFDCGLVGPEDVSTEQDLPRTMRKGQKRLVLSESCSRDSMSSQPSCTGLNYSYGVNAWKCWVQSKYANGETSKGDELRFGPKPMRIKEDILACSAAELNYGLAQFVREITRPNGERYEPDSIYYLCLGIQQYLLENNRMVNIFTDLYYLTFVQELNKSLSTWQPTLLPNNTVFSRVEEEHLWECKQLGVYSPFVLLNTLMFFNTKFFGLQTAEEHMQLSFTNVVRQSRKCTTPRGTTKVVSIRYYAPVRQRKGRDTGPGKRKREDEAPILEQRENRMNPLRCPVKFYEFYLSKCPESLRTRNDVFYLQPERSCIAESPLWYSVIPMDRSMLESMLNRILAVREIYEELGRPGEEDLD

The target of experiment [1] is T1, full-length ABRA1, bacterially expressed (UniProt Q6UWZ7 1-409).
T1 sequence (looked up): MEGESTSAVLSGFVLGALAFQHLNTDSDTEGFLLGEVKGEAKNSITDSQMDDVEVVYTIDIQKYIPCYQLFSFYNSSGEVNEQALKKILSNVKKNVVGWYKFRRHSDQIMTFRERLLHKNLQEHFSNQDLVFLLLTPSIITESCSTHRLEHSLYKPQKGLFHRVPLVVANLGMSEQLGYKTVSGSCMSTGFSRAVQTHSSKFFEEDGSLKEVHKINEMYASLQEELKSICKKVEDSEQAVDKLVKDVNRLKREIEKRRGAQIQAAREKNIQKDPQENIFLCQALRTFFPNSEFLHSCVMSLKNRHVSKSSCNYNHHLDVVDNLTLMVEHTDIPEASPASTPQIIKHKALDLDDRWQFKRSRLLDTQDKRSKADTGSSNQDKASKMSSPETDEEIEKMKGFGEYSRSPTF
Briefly: pull-down.

For experiment [2], the target named is B1. Briefly: pull-down.

As for B1, the binding result in experiment [1] is listed as “binds”.

B2: RAP80-AIR (amino acids 227-346), bacterially expressed (domain or fragment, UniProt Q96RL1 227-346, looked up)
chain: HTQCGKPQESTGRGSAFLKAVQGSGDTSRHCLPTLADAKGLQDTGGTVNYFWGIPFCPDGVDPNQYTKVILCQLEVYQKSLKMAQRQLLNKKGFGEPVLPRPPSLIQNECGQGEQASEKN
Take B2: the binding result in experiment [2] is given as “binds”.
